In PMC3507621:

B1: wild type recombinant N-terminal region of PTX3 (N_PTX3) [human] / mouse TSG-6 (tumor necrosis factor-induced protein 6) [mouse] (parent)
chain 1: ENSDDYDLMYVNLDNEIDNGLHPTEDPTPCACGQEHSEWDKLFIMLENSQMRERMLLQATDDVLRGELQRLREELGRLAESLARPCAPGAPAEARLTSALDELLQATRDAGRRLARMEGAEAQRPEEAGRALAAVLEELRQTRADLHAVQGWATG
chain 2: WGFKNGIFHNSIWLEQAAGVYHREARAGRYKLTYAEAKAVCEFEGGRLATYKQLEAARKIGFHVCAAGWMAKGRVGYPIVKPGPNCGFGKTGIIDYGIRLNRSERWDAYCYNPHAKECGGVFTDPKRIFKSPGFPNEYDDNQVCYWHIRLKYGQRIHLSFLDFDLEHDPGCLADYVEIYDSYDDVHGFVGRYCGDELPEDIISTGNVMTLKFLSDASVTAGGFQIKYVTVDPASKSSQAKNTSTTGNKKFLPGRFSHL
B2: wild type recombinant N-terminal region of PTX3 (N_PTX3) [human] / mouse TSG-6 (tumor necrosis factor-induced protein 6) [mouse] (parent)
chain 1: B1 chain 2
chain 2: B1 chain 1

How the values were obtained:
[1] = variants of: B1; experiment: competition ELISA (bPTX3 detected with HRP-conjugated streptavidin); conditions: with mouse TSG-6 (tumor necrosis factor-induced protein 6) [mouse], wells coated with TSG-6, read off a plot
[2] = variants of: B2; experiment: ELISA; conditions: with mouse TSG-6 (tumor necrosis factor-induced protein 6) [mouse], pH 7.4, PBS with Ca2+ and Mg2+, read off a plot
[3] = TSG-6 about 0.38 nM (est. from x axis), parent: 0.29
[4] = TSG-6 about 1.6 nM (est. from x axis), parent: 0.91
[5] = TSG-6 about 6.2 nM (est. from x axis), parent: 1.7
[6] = TSG-6 about 26 nM (est. from x axis), parent: 2.2
[7] = TSG-6 about 100 nM (est. from x axis), parent: 2.3

Variant	screen value ([1]; competitor about 0.24 nM (est. from x axis), parent: 99) [%]	screen value ([1]; competitor about 1.2 nM (est. from x axis), parent: 90) [%]	screen value ([1]; competitor about 12 nM (est. from x axis), parent: 82) [%]	screen value ([1]; competitor about 120 nM (est. from x axis), parent: 58) [%]	screen value ([1]; competitor about 1200 nM (est. from x axis), parent: 17) [%]	response [2, 3]	response [2, 4]	response [2, 5]	response [2, 6]	response [2, 7]
chain 1 C30S C32S C86S	97	93	84	64	29	–	–	–	–	–
chain 2 C86S	–	–	–	–	–	0.3 O.D. (450nm)	0.91 O.D. (450nm)	1.6 O.D. (450nm)	2.2 O.D. (450nm)	2.3 O.D. (450nm)
chain 2 C30S C32S	–	–	–	–	–	0.14 O.D. (450nm)	0.5 O.D. (450nm)	1.1 O.D. (450nm)	1.9 O.D. (450nm)	2.2 O.D. (450nm)
chain 2 C30S C32S C86S	–	–	–	–	–	0.31 O.D. (450nm)	0.91 O.D. (450nm)	1.7 O.D. (450nm)	2.2 O.D. (450nm)	2.2 O.D. (450nm)
